# Data: patent US20230265151A1, “GIP/GLP1 CO-AGONIST COMPOUNDS” (priority 2020, published 2023)
# T1: human GIP receptor (human, UniProt P48546 22-466)
# T1 sequence (looked up): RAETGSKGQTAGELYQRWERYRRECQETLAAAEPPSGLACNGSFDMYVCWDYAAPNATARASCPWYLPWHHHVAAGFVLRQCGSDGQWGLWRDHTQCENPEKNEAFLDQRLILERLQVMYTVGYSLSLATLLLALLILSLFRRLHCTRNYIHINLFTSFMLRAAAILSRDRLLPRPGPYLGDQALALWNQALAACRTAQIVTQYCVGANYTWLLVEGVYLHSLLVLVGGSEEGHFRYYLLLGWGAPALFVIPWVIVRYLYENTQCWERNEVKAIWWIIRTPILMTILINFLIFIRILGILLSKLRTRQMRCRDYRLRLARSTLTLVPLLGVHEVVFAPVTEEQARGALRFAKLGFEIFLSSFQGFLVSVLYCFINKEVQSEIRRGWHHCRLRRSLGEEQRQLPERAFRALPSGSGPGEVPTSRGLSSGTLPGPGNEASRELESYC
# Key:
# Experiment in all cases: cell-based or functional assay
# [1] = target: human GLP-1 receptor (human, UniProt P43220 24-463)
# [2] = target: human glucagon receptor (human, UniProt P47871 26-477)
# [3] = target: T1, human GIP receptor
Binder,cAMP EC50 (1.0% HSA) [1] [nM],cAMP EC50 (1.0% HSA) [2] [nM],cAMP EC50 (1.0% HSA) [3] [nM],cAMP Emax (1.0% HSA) [3] [%],cAMP Emax (1.0% HSA) [1] [%]
YXEGTXTSDXSIXLDXKAQXKFIXXLIEGGPSSGAPPPS (Y-Aib-EGT-αMeF(2F)-TSD-OMeY-SI-αMeL-LD-Orn-K((2-[2-(2-Amino-ethoxy)-ethoxy]-acetyl)2-(γ-Glu)-CO-(CH2)12-CO2H)AQ-Aib-K((2-[2-(2-Amino-ethoxy)-ethoxy]-acetyl)2-(γ-Glu)-CO-(CH2)12-CO2H)FI-(D-Glu)-αMeY-LIEGGPSSGAPPPS-NH2) [Example 259],28.9,> 9950,2.34,66.4,
YXEGTXTSDXSIXLDXIAQXEFIKXLIKGGPSSGAPPPS (Y-Aib-EGT-αMeF(2F)-TSD-4Pa1-SI-αMeL-LD-Orn-IAQ-Aib-EFIK((2-[2-(2-Amino-ethoxy)-ethoxy]-acetyl)2-(γ-Glu)-(10-(4-carboxyphenoxy)decanoyl))-αMeY-LIK((2-[2-(2-Amino-ethoxy)-ethoxy]-acetyl)2-(γ-Glu)-(10-(4-carboxyphenoxy)decanoyl))GGPSSGAPPPS-NH2) [Example 274],32.9,> 9950,1.16,,
YXEGTXTSDXSIXLDXIAQXEFIKXLIKGGPSSGAPPPS (Y-Aib-EGT-αMeF(2F)-TSD-hTyr-SI-αMeL-LD-Orn-IAQ-Aib-EFIK((2-[2-(2-Amino-ethoxy)-ethoxy]-acetyl)2-(γ-Glu)-CO-(CH2)12-CO2H)-αMeY-LIK((2-[2-(2-Amino-ethoxy)-ethoxy]-acetyl)2-(γ-Glu)-CO-(CH2)12-CO2H)GGPSSGAPPPS-NH2) [Example 270],32.6,> 9950,3.8,80.9,
YXEGTXTSDXSIXLDXIAQXKFIXXLIKGGPSSGAPPPS (Y-Aib-EGT-αMeF(2F)-TSD-OMeY-SI-αMeL-LD-Orn-IAQ-Aib-K((2-[2-(2-Amino-ethoxy)-ethoxy]-acetyl)2-(γ-Glu)-(10-(4-carboxyphenoxy)decanoyl))FI-(D-Glu)-αMeY-LIK((2-[2-(2-Amino-ethoxy)-ethoxy]-acetyl)2-(γ-Glu)-(10-(4-carboxyphenoxy)decanoyl))GGPSSGAPPPS-NH2) [Example 280],49.9,> 9950,4.84,88.5,
YXEGTXTSDXSIXLDXIAQXEFIKXLIKGGPSSGAPPPS (Y-Aib-EGT-αMeF(2F)-TSD-OMeY-SI-αMeL-LD-Orn-IAQ-Aib-EFIK((2-[2-(2-Amino-ethoxy)-ethoxy]-acetyl)2-(γ-Glu)-CO-(CH2)12-CO2H)-αMeY-LIK((2-[2-(2-Amino-ethoxy)-ethoxy]-acetyl)2-(γ-Glu)-CO-(CH2)12-CO2H)GGPSSGAPPPS-NH2) [Example 262],69.8,> 9950,8.15,79.7,
YXEGTXTSDXSIXLDXKAQXKFIXXLIEGGPSSGAPPPS (Y-Aib-EGT-αMeF(2F)-TSD-hTyr-SI-αMeL-LD-Orn-K((2-[2-(2-Amino-ethoxy)-ethoxy]-acetyl)2-CO-(CH2)12-CO2H)AQ-Aib-K((2-[2-(2-Amino-ethoxy)-ethoxy]-acetyl)2-CO-(CH2)12-CO2H)FI-(D-Glu)-αMeY-LIEGGPSSGAPPPS-NH2 …) [Example 272],4.72,> 9950,0.561,81.2,
YXEGTXTSDXSIXLDXIAQXEFIKXLIKGGPSSGAPPPS (Y-Aib-EGT-αMeF(2F)-TSD-4Pal-SI-αMeL-LD-Orn-IAQ-Aib-EFIK(2-[2-(2-Amino-ethoxy)-ethoxy]-acetyl)2-(γ-Glu)-(11-(4-carboxyphenoxy)undecanoyl)-αMeY-LIK((2-[2-(2-Amino-ethoxy)-ethoxy]-acetyl)2-(γ-Glu)-(11-(4-carboxyphenoxy)undecanoyl)GGPSSGAPPPS-NH2)) [Example 286],35,> 9950,2.18,,90.3
YXEGTXTSDXSIXLDXKAQXKFIXXLIEGGPSSGAPPPS (Y-Aib-EGT-αMeF(2F)-TSD-2Nal-SI-αMeL-LD-Orn-K((2-[2-(2-Amino-ethoxy)-ethoxy]-acetyl)2-(γ-Glu)-(10-(4-carboxyphenoxy)decanoyl))AQ-Aib-K((2-[2-(2-Amino-ethoxy)-ethoxy]-acetyl)2-(γ-Glu)-(10-(4-carboxyphenoxy)decanoyl))FI-(D-Glu)-αMeY-LIEGGPSSGAPPPS-NH2) [Example 281],22.4,> 9950,1.87,,
YXEGTXTSDXSIXLDXKAQXKFIXXLIEGGPSSGAPPPS (Y-Aib-EGT-αMeF(2F)-TSD-OMeY-SI-αMeL-LD-Orn-K((2-[2-(2-Amino-ethoxy)-ethoxy]-acetyl)2-(γ-Glu)-(10-(4-carboxyphenoxy)decanoyl))AQ-Aib-K((2-[2-(2-Amino-ethoxy)-ethoxy]-acetyl)2-(γ-Glu)-(10-(4-carboxyphenoxy)decanoyl))FI-(D-Glu)-αMeY-LIEGGPSSGAPPPS-NH2) [Example 277],12.2,> 9950,0.962,,
YXEGTXTSDXSIXLDXIAQXKFIXXLIKGGPSSGAPPPS (Y-Aib-EGT-αMeF(2F)-TSD-4Pal-SI-αMeL-LD-Orn-IAQ-Aib-K(2-[2-(2-Amino-ethoxy)-ethoxy]-acetyl)2-(γ-Glu)-(11-(4-carboxyphenoxy)undecanoyl)FI-(D-Glu)-αMeY-LIK((2-[2-(2-Amino-ethoxy)-ethoxy]-acetyl)2-(γ-Glu)-(11-(4-carboxyphenoxy)undecanoyl)GGPSSGAPPPS-NH2)) [Example 287],83.8,> 9950,3.76,,
YXEGTXTSDXSIXLDXIAQXEFIKXLIKGGPSSGAPPPS (Y-Aib-EGT-αMeF(2F)-TSD-OMeY-SI-αMeL-LD-Orn-IAQ-Aib-EFIK((2-[2-(2-Amino-ethoxy)-ethoxy]-acetyl)2-(γ-Glu)-(10-(4-carboxyphenoxy)decanoyl))-αMeY-LIK((2-[2-(2-Amino-ethoxy)-ethoxy]-acetyl)2-(γ-Glu)-(10-(4-carboxyphenoxy)decanoyl))GGPSSGAPPPS-NH2) [Example 279],36.6,> 9950,3.21,,
YXEGTXTSDXSIXLDXKAQXEFIXXLIKGGPSSGAPPPS (Y-Aib-EGT-αMeF(2F)-TSD-2Nal-SI-αMeL-LD-Orn-K((2-[2-(2-Amino-ethoxy)-ethoxy]-acetyl)2-(γ-Glu)-(10-(4-carboxyphenoxy)decanoyl))AQ-Aib-EFI-(D-Glu)-αMeY-LIK((2-[2-(2-Amino-ethoxy)-ethoxy]-acetyl)2-(γ-Glu)-(10-(4-carboxyphenoxy)decanoyl))GGPSSGAPPPS-NH2) [Example 282],31.8,> 9950,1.44,,
YXEGTXTSDXSIXLDXKAQXKFIXXLIEGGPSSGAPPPS (Y-Aib-EGT-αMeF(2F)-TSD-OMeY-SI-αMeL-LD-Orn-K((2-[2-(2-Amino-ethoxy)-ethoxy]-acetyl)2-CO-(CH2)12-CO2H)AQ-Aib-K((2-[2-(2-Amino-ethoxy)-ethoxy]-acetyl)2-CO-(CH2)12-CO2H)FI-(D-Glu)-αMeY-LIEGGPSSGAPPPS-NH2 …) [Example 265],5.14,> 9950,0.775,,
YXEGTXTSDXSIXLDXKAQXEFIXXLIKGGPSSGAPPPS (Y-Aib-EGT-αMeF(2F)-TSD-OMeY-SI-αMeL-LD-Orn-K((2-[2-(2-Amino-ethoxy)-ethoxy]-acetyl)2-(γ-Glu)-(10-(4-carboxyphenoxy)decanoyl))AQ-Aib-EFI-(D-Glu)-αMeY-LIK((2-[2-(2-Amino-ethoxy)-ethoxy]-acetyl)2-(γ-Glu)-(10-(4-carboxyphenoxy)decanoyl))GGPSSGAPPPS-NH2) [Example 278],27,> 9950,1.41,,
YXEGTXTSDXSIXLDXKAQXEFIXXLIKGGPSSGAPPPS (Y-Aib-EGT-αMeF(2F)-TSD-OMeY-SI-αMeL-LD-Orn-K((2-[2-(2-Amino-ethoxy)-ethoxy]-acetyl)2-CO-(CH2)12-CO2H)AQ-Aib-EFI-(D-Glu)-αMeY-LIK((2-[2-(2-Amino-ethoxy)-ethoxy]-acetyl)2-CO-(CH2)12-CO2H)GGPSSGAPPPS-NH2 …) [Example 266],5.83,> 9950,0.575,,
